In the domain aggregation screens of Martell et al. (2025):

Assay: soluble fraction after stress (log2 fold change); higher = more stays soluble; pooled small domains, quantitative proteomics
Conditions: stress: pH 4
Outline: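 After pH 4 stress, pooled custom libraries of small protein domains were quantified with high-throughput quantitative proteomics. Aggregation propensity is taken from the fold change in each domain's soluble amount following the acid stress. The scale is log2, where higher values mean more stayed soluble.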

| Sequence | soluble fraction (log2) |
| --- | --- |
| HMELPSDEHLDDISHLARIGHKKGLQEKIIQLEQQGLASAEFIQQLKTLTNNFQFEKIIQWVDSEL | -0.848 |
| HMELRIREILESKDIKVSSLAETVGITRANMSNIVNGKSTPSLETLEKIANALGVDITELFA | -0.573 |
| HMELSAEGWVDGTGVRMRASASTDSEVVRVTEDGESLDITGVSGTWYRVTAGGVSGYIRSDYVSLEEP | -0.186 |
| HMELSAQEIGRRLRIARENADIRQDDAAQVIGMSRPTLVSIEKGVRRVRIQEIQMLARHYGVSVNALLR | -0.2 |
| HMELSVTDRTRQIRHILKEKGRVEFTSLFEELTKPYVIVTFLSVLEMSKNNELMITQDKTFGSITLEMKG | -0.383 |
| HMELVIGESLAVELLRPGKEDGQALGYLPDGSMVVVNNGRAFVGKRVTAEIIGVIRSAGGKMVFSNLLGE | -2 |
| HMEMDITIQMRTLVEELNRASDAYYNGRGELMTDYEWDAKFDQLKQLESQSGVVLPDSPTHRV | -1.51 |
| HMEMELNHVARRAGRLSGFLKGELRLSTGLMNRLKWSNAILVNGKPARTNAQVEPGDRITVILD | 0.189 |
| HMEMLQENIRNLRKAKGWSQEELAIKLNVVRQTVSKWEKGLSVPDSQMLIRIADELDTTVAILLG | 0.253 |
| HMEMLQRFIFLENVSSTQVESAIKELHPNLNLKRVKLSFPGADTVLLKGPKQDLELAEELIRHLDRSE | -0.609 |
| HMEMPGGVMRTLSTIAYNQPVLQSKLVKVRGPRAYEDVHILRDMGLVSARSVGQTVELSTTPKFAEQF | 0.102 |
| HMENEIFVPKVFMDWYNKVDKSIKVFKAFNLIEKETDPRLKEWVEDNQDEFAKIWLGQLLPVV | -0.35 |
| HMENFIPDDPKRIEIGMSVLHQRFGKGKVMQLEGNLPDMKATVNFEGEGQKQLLLKYARLKIV | -0.0241 |
| HMENIDVGQDYKVTMNTIQNLMKTGLVTGTQYKELLREMGVHSGMGAITAQQHQIALDFLNKTMDSA | -0.444 |
| HMENIIKISASYEGLRVDQFLSNYLKISRSKVQKYISEEKIFLNNVPTKTNRKVKLDDIISYNLNF | 0.0839 |
| HMENITTILRSIKNEIKKNSTFVGDDFVNQARSMNQGQIKEKSIYGHGTKKEIEELRDEGVDVLNIPWIT | 0.0184 |
| HMENKIIKNAAHATLKVKKDAGIEITTELIREAVILFHRIYSPNDNPNINWERIINELESHYT | -0.993 |
| HMENLFPDYTMQDYRIVRSELSSKFKVQTVPVTTATATENKIVRQEPEAGSRITEGMTVILYYSIGPE | 0.0963 |
| HMENLRLSELTVERGHRLAGRTLADIASAPNSPKYLIVLIQRGQETVIPTGSTVILPGDVLILAQS | -0.749 |
| HMENMSFGTKLYTWLYGKLVGSDEIGNKYYTNINDPSDLNAKRWVIFNGEIEASKIPPHWHAWLHKSIDK | -0.265 |
| HMENMTLGQRIQALRKQHGLSQEGLGERLGVSRQAISRWEMDGAVPEVDKLIAMARLFGVSLNQLLGVE | -0.0911 |
| HMENNIPANIKALIISYVNQNYPGAVIHSIERNSNGTYDVEIYYNNREYDLLFDAQGNFISGNVDDQ | -0.366 |
| HMENNIRLSVPDTESGQRIDSYLAEQIPGLTRSAVQNLLAEQAVTIAGKAVKKNYKLLGGEDILVQLPEVR | ≥ 0.43 |
| HMENPPISVVIPPSFRGQRIDKALGSLIGDYSRSKIQQWLQSGLVQSAGEPLLPKYTVLGNEQILIAVPS | 0.03 |
| HMENQGEDMRQQVKALVNADKTNITKLATATGYSRSTISMYLAGNYKGDVEAVERRLEEYMKTQG | 0.167 |
| HMENSYSVEDLALKAAISVDTIRYYQGLGLISPPQKNGRRAIYGNDHISRLEEIKKLAFEGFSLRQISLL | 0.22 |

| Sequence | soluble fraction (log2) |
| --- | --- |
| HMENTIPSVIGRTLSDGVFLLESYGYVKGNVSEEFSEMPIGVIIRQFPGAGSAAEAGTRVDLVVSKGEEIV | -0.316 |
| HMENVALYIRLKSMASVYDDVHGYNIEWIKSMIGLSIDIEKLRTVLEDVSWITKVEEDVYSFSKNAKPFE | -2.32 |
| HMENVQLRNFAIKATEAGIIKLSSDQRTFMWASNQKKLMTVPFDEHPYSAMAQFFKTDEGLAVFKSIEKKL | -0.428 |
| HMEPADALVAALVARGVSPSTARITVKQYPATRIQPQLEVFDYLVAQKDPKVSRNPPGFLLSAIRGEYA | 0.0562 |
| HMEPAPELTPREQQVLARIALGMTDKAIAEELGVSHQTVRNHVARIYQKIKVHSRSQAVVWAREKGI | 0.0801 |
| HMEPDEESVRLKEEILSRIDYWHTTMPYMGTRKLAAKLRTEGYAVGRKLVRTYMREMGIHAVYP | -0.293 |
| HMEPELSVDMKPLDGLLLAIKKELQAAQMYTRLARASADAEQKMVFEQLANMEKGHKARLEDIYT | -0.348 |
| HMEPESTMIEISETLTNERLDRYLATKLPNVSRGGIQRLLREGNILVNGKKAKPTQHPVAGQKIEITWPNP | -0.11 |
| HMEPEYIGELEKRIKKLKTHTYSSIDRLMKSISKKYKITTQVLHDDFKNKHNEIPDEWVKQF | 0.22 |
| HMEPKIKQIVPNVVNYPVEDAKNVLVNSGLIVQIRGQGNIVYDQVPKGGAEVTRGTTVILDLNPPPGA | -0.768 |
| HMEPKQIEVPNLVGISSAAARQTLSALGLHAVVKDSIWSETERIDTVLEQNPAGGALIKPEGTVYLRVSR | 0.0547 |
| HMEPLIRTLEEQIAEKIKNYRKGTRVYDAEHVDRWISQLPEEERMVVLTETNRLLEQNYVDQAKLME | -0.803 |
| HMEPMLEIFDAKIDLADVLAVESGLVRLRGGAEVTSPRVDVDAGARLELDSGARLNVERLSY | -0.823 |
| HMEPMTDQQILEGFAEFKRQNPDLMNRPATQAIVNLTLPGGTPISFRSGAGAAALNQYLESIGMRAGP | -0.0242 |
| HMEPPAPAPDIPYPSRVTVRREVDGWPHYYGTWTRTPPVLGYEGIWLVGVSLDGKVQFVPVDDVTIA | -0.555 |
| HMEPREEFTFADLRANGLNGTAAAAGRRAALGAALGIGYGNAKQFLRRLNHYGVTRSEWEAALADLDE | -0.0963 |
| HMEPSERYKALQSLLPDYAKRLKKKGVTRHQLFLEYRLTHPDGYARSRFGTYFQAYLALSHP | ≥ 0.43 |
| HMEPTLVVARDKDAKSPLVAKLMKELGVDAAPRVIVDDSVIGGAKLSHNHTEIDATYKTALINLYQAIT | -0.0179 |
| HMEPVFSDPARQTLYQEVMELPAKYRVPLYLYYYEGYKVDEVGELLGLNASTVQTRLARARAKLKIQL | -0.17 |
| HMEQETVTVPDLVGKDVVAAQAELHEMGLSGKPDGTGTTVVSQFPVAGARVLKHTNVILYTED | 0.0839 |
| HMEQFRENIVRIYMEIDDYENGAKFLEMGNNRDASFYELAGDFYKYFGENELANENYDLAISA | -1.39 |
| HMEQIPEEYKKIYSLITDIPININDIAKKSLLELREVSSKLTMLELDGKVVKLPGNMYIRGDL | -0.0736 |
| HMEQKELAPLVPQEDGSVKLTNLAGYSMREVAAALEGGNLSLIPIGSGTSWKQDPAPGTVLQPGNTVTVYF | -0.209 |
| HMEQPLSLKLANNAFSRFWGNANPAEKDTQPNNSDIAKWVIEQSGGKITQTMADKIAQIIRPEWAA | 0.25 |
| HMEQSGDELKTWVDQAIAAYPEKVKEYQQGKKGLLALFIGEVMKRSKGTADPKKVNQLVTEALS | -0.211 |
| HMEQTMNDMLKLVDLLPQNQQDIVRMRFYENMSFKEIAESNQISINTALGRMRYAILNLRKYAAERNL | -1.57 |

| Sequence | soluble fraction (log2) |
| --- | --- |
| HMEQVLDEEIIKSAVQKVIKDNPSAVSDYKAGKKTAFQFLIGKAMAELQGKGHPGKISELLEKE | 0.257 |
| HMEQVQQIPIEELFPFKEHPFKVLDDEAMQRTVESVAQYGVLAPLIARPRPEGGYEIISGHRRQHAAELYR | -0.445 |
| HMEQWVSIEVEPGIRLDVALTEATQKSRSFIQNLIAEQRVLVNGQPKKANYKVRPGDHVELNYPEPT | -0.415 |
| HMEREKTYLMPDLIGRKAERVVPRLQASGFKVEDIRHVYYPGLEKGVIVRQSPPGGYPIQKRNLINLEVS | 0.0984 |
| HMERLKKYLDDVRTFLPGTNPKKVDEILREIESHVLERAEREHGEVNDNAVAMSIKEYGSPEEVAARYYEG | -0.29 |
| HMERLSNQVYAILKEMIADYRFNPGARINVEQIAKEVGASRTPVWEAVHRLVQEGLLENIPNRGVFML | -1.11 |
| HMERNAEDFAAKYQEIYQDMFRFALYTLKNRQEAEDVVSETVLDAWKGIEGLKNESAFSAWMFRILVNK | -0.325 |
| HMESADEESNALMYDGLLAMRGKRYEVALEFFDALVKHDPDFAEGWNKRATVLYLLGRYERSIADIKQVLA | -0.0176 |
| HMESAEQTGEELAARVNVLQTVSQALARELGREAAVEELADKMKMTVDEVKDIMKMAMDAMSM | -1.59 |
| HMESAESRVDLIGMIGEAITDLRPAGTAQFGEERIDVVSESEWITEGSTVKVVSAEGYRHVVRVME | -1.01 |
| HMESENANVNRAMLTGIASMHAGQLETALNKFNEVIQLAPDFAEGWNKRATIFYLMKKFDRSVNDIAQTLK | -0.741 |
| HMESFGVAIKRLREAQGWTRADFLRQLGKTGYYMHATTLKRIEEGEQIAKVHEAVIISRLFGVTVEEMG | -1.3 |
| HMESGFEAVREVARHGSFANAAKALGVSGPAVSRQVKSLEERLGLVFFHRTTRMVTLTEAGQQLVDTLD | -0.211 |
| HMESGNLIFTNAPIADVVNAIETRYGKKLQASNQTSDLQFTGIFKNTDEFSTVVKTIEIALGLQFEV | -1.37 |
| HMESIEAGTFELDNKTSIDISEDEANLLNKMFEELTETNSKDMYGVMVADEAGFNEILEFAKENL | -0.551 |
| HMESNWLTYAKRIQSIADTGMTFAVDDFDKERYQELADISSKMLADLSNIPIGRIENLLGPLGQ | -1.26 |
| HMESPVNTLPEDQRAWYKALPPELSTKTAVEAGAGVGVSERTVKRLLSNQTFFINLQRGNYRKRH | 0.314 |
| HMESRMTYLQKTKLATENLDAKLIDHQQWVAEVLGEDYRGVYSDEYLRRAAKVFAIFVNNLDD | -1.41 |
| HMESRRVTLLLPYDKAGIADTLRREAAVLSLEYGEDGVTVEAVVKPELWGLVREYVQNDNPK | -0.319 |
| HMESVTETFLTNLINRYIADKAGYIISYPSEYRIEVLYHGGQVLDYENLRKSINTYIPAHIGYKLVTI | -0.158 |
| HMESYDSEIKEVLDLAGKGRWEEAQTKADALREMAPNNSLVERLHGWVLQAAHQRREQALENDIRE | 0.101 |
| HMESYTEEMLEKMSVSKLRTIARELQVDNMTREQIRFGKKTELIQNILEFTGREIENMQLYDK | -0.357 |
| HMESYWVVLRPMAAGTQIGANDLGYRSVALGAAAKNYLAASTNPIGSITRRRLVAGELLQGSSLTDDARA | 0.185 |
| HMETADREILLREIREIINERVDYNKDITDDEMKELVMNTVFERSRQQYMSIQDKQEIIQAIFNSMR | -1.02 |
